{"source": "patent US6034062A", "about": "“Bone morphogenetic protein (BMP)-9 compositions and their uses” (Genetics Institute, Inc., priority 1997, dated 2000)", "key": {"[1]": {"test_system": "A-549 lung epithelial cells", "experiment": "Cell proliferation, [3H]thymidine incorporation, A-549", "type": "cell-based", "conditions": "subconfluent, 24 h", "experimental": "(§1) Several cell lines are tested for BMP-9 responsiveness in vitro. Cell proliferation, as indicated by [^3 H]thymidine incorporation, is determined in cell lines derived from kidney and lung. Cell proliferation is determined by measuring [^3 H]thymidine incorporation in subconfluent cells treated for 24 h with or without growth factors. NRK-52E (ATCC CRL 1571), WI-38 (ATCC CCL-75), CCD-11Lu (ATCC CCL-202), CCD-16Lu (ATCC CCL-204), and A-549 (ATCC CCL-185) cell lines are placed at 10^4 cells/well in 96 well plates and assayed for [^3 H]thymidine incorporation as described above. IMCD-3 cells (ATCC #CRL-2123) are cultured in a collagen matrix as described by Barros et al., PNAS USA 92:4412-4416 (1995), and treated with growth factors for 6 days to allow tubule formation."}, "W-20-17": {"test_system": "W-20-17", "experiment": "Alkaline phosphatase activity in W-20-17 osteoprogenitor cell line", "type": "cell-based", "conditions": "dose responsive", "experimental": "W-20 cells are plated into 96 well tissue culture plates at a density of 10,000 cells per well in 200 μl of media (DME with 10% heat inactivated fetal calf serum, 2 mM glutamine and 100 U/ml+100 μg/ml streptomycin. The cells are allowed to attach overnight in a 95% air, 5% CO2 incubator at 37° C.\nThe 200 μl of media is removed from each well with a multichannel pipettor and replaced with an equal volume of test sample delivered in DME with 10% heat inactivated fetal calf serum, 2 mM glutamine and 1% penicillin-streptomycin. Test substances are assayed in triplicate.\nThe test samples and standards are allowed a 24 hour incubation period with the W-20 indicator cells. After the 24 hours, plates are removed from the 37° C. incubator and the test media are removed from the cells.\nThe W-20 cell layers are washed 3 times with 200 μl per well of calcium/magnesium free phosphate buffered saline and these washes are discarded.\n50 μl of glass distilled water is added to each well and the assay plates are then placed on a dry ice/ethanol bath for quick freezing. Once frozen, the assay plates are removed from the dry ice/ethanol bath and thawed at 37° C. […]\nThe spectrophotometric absorbance for each well is read at a wavelength of 405 nanometers. […] For example, using known amounts of p-nitrophenol phosphate, absorbance values are generated."}, "primary rat hepatocytes": {"test_system": "primary rat hepatocytes", "experiment": "Primary rat hepatocyte 3H-thymidine incorporation", "type": "cell-based", "experimental": "As a first indication of BMP-9 effects on confluent, serum starved HepG2 cells, cell proliferation is examined as determined by ^3 H-thymidine incorporation and cell counting. HepG2 cells are plated at […] in 96 well plates and cultured for 48 hours in DME/0.1% FCS to synchronize the cell cycle are treated for 24 hours with or without BMP-9 in the presence of 0.1% FCS. In ^3 H-thymidine incorporation assays, ^3 H-thymidine was included during the last 4 hours of treatment and cellular DNA was collected with a 96 well plate cell harvester. Proliferation was assayed by quantifying ethanol-precipitable ^3 H-thymidine incorporation by liquid scintillation counting. For cell counting assays, cells were trypsinized and counted with a hemacytometer. […] BMP-9 stimulates ^3 H-thymidine incorporation in HepG2 cells approximately five fold.\nTo determine if this proliferative effect of BMP-9 was unique to the HepG2 liver tumor cell line, primary rat hepatocytes were tested for effects of BMP-9 on ^3 H-thymidine incorporated as shown in FIG. 4."}, "kidney plasma membranes": {"test_system": "kidney plasma membranes", "experiment": "[125I]rhBMP-9 binding to kidney plasma membranes", "parameters": "species or system rat", "experimental": "To determine potential target tissues for BMP-9, plasma membrane preparations from adult rat organs are screened for specific [^125 I]rhBMP-9 binding. Plasma membranes are prepared by the methods of Neville, J. Biophys Biochem Cytol 8:412-422 (1960) and Ray, Biochim Biophys Acta 196:1-9 (1970) with the following modifications: Fresh tissues from adult male Long-Evans rats are homogenized with 10 strokes of a teflon homogenizer. Plasma membranes are collected from discontinuous sucrose gradients at 37%/41% sucrose interface and the 41%/45% sucrose interface. Homogenization buffer and sucrose solutions are supplemented with 0.7 μg/ml leupeptin, 2 μg/ml aprotinin and 240 μg/ml pefabloc. Protein levels in plasma membrane preparations are determined by the bicinchoninic acid assay (Pierce, Rockford, Ill.) using immunoglobulin G as a standard.\nBMP-9 binding is carried out by suspending plasma membranes at 30 μg/100μl in binding buffer (136.9 mM NaCl, 5.37 mM KCl, 1.26 mM CaCl2, 0.64 mM MgSO4, 0.34 mM Na2 HPO4, 0.44 mM KH2 PO4, 0.49 mM MgCl2, 25 mM HEPES and 0.5% BSA, pH 7.4) containing o.5 ng [^125 I]rhBMP-9. Binding is allowed to equilibrate by incubation for 16 h at 4° C. […]\nTo verify that this specific binding is of high affinity, a more complete displacement profile is determined with lung and kidney plasma membranes."}, "IMCD-3 cells": {"test_system": "IMCD-3 cells", "experiment": "IMCD-3 cell condensation and tubulogenesis in collagen matrix", "type": "cell-based", "conditions": "IMCD-3 cells in 3-dimensional collagen gel, 100 ng/ml, 6 days, serum-free", "experimental": "as §1\nIn contrast, BMP-9 appeared to stimulate proliferation in several fibroblast cell lines derived from lung. […] The effect of rhBMP-9 on tubulogenesis was examined in IMCD-3 cells, another epithelial kidney cell line. […] It is therefore contemplated that both lung and kidney cells are physiological targets for BMP-9."}}}
{"molecule": "BMP-9: recombinant human bone morphogenetic protein-9, mature amino acids #1-#110 of SEQ ID NO:9, expressed in CHO cells (protein, 125I-iodinated as tracer; unlabelled BMP-9 used as the displacing ligand) TRECSRSCPRTAPQRQVRAVTRRTRMAHVAAGSTLARRKRSAGAGSHCQKTSLRVNFEDIGWDSWIIAPKEYEAYECKGGCFFPLADDVTPTKHAIVQTLVHLKFPTKVG", "values": [{"measurement": "cell proliferation ([3H]thymidine incorporation)", "setting": "[1]", "value": "inhibited proliferation"}, {"measurement": "ED50, stimulation of alkaline phosphatase activity", "setting": "W-20-17", "value": 4, "unit": "ng/mL"}, {"measurement": "3H-thymidine incorporation", "setting": "primary rat hepatocytes; confluent primary rat hepatocytes", "value": "confluent primary hepatocytes did not"}, {"measurement": "3H-thymidine incorporation", "setting": "primary rat hepatocytes; subconfluent primary rat hepatocytes, 36 hours, serum-free", "value": "stimulated ^3 h-thymidine incorporation in primary hepatocytes, although not as markedly as EGF"}, {"measurement": "specific [125I]rhBMP-9 binding", "setting": "kidney plasma membranes; adult rat kidney plasma membranes, displaceable by 100-fold excess of unlabeled rhBMP-9", "value": "evident"}, {"measurement": "Kd", "setting": "kidney plasma membranes; rat kidney plasma membranes", "value": 300, "unit": "pM"}, {"measurement": "cell condensation and tubulogenesis", "setting": "IMCD-3 cells", "value": "did not induce tubules and inhibited the cell condensations and tubule formation observed under control conditions"}]}
